Assay results reported in publication PMC5942852 (2018).
Changes are numbered by the printed parent chain. Where “and” joins values, the source holds several entries; their conditions need not be identical. Equal values may be shown once.

B1: L14_7 (antibody, V domains shown)
VH: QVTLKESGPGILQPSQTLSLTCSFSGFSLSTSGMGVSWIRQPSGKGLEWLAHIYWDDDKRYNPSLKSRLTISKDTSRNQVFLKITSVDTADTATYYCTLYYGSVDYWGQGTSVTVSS
VL: DIQMTQSPASLSASVGETVTITCRSSRDIKDYITWYQQKQGKSPQLLVYNAKTLAEGVPSRFSGSGSGTEFSLKISSLQPEDFGNYYCQHHYGTRTFGGGTRLEIK
B2: WT 2J88 antibody (antibody, V domains shown)
VH: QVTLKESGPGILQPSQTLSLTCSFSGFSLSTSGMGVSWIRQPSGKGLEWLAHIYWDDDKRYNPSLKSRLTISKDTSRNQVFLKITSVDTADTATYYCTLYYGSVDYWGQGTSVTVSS
VL: B1 VL with S25A, R27E, D28N, K30Y, D31S, I33L, E70Q

How the values were obtained:
[1] = biological target: T1, Bee Hyaluronidase (bee); test: SPR; XPR repeat 1
T1 chain: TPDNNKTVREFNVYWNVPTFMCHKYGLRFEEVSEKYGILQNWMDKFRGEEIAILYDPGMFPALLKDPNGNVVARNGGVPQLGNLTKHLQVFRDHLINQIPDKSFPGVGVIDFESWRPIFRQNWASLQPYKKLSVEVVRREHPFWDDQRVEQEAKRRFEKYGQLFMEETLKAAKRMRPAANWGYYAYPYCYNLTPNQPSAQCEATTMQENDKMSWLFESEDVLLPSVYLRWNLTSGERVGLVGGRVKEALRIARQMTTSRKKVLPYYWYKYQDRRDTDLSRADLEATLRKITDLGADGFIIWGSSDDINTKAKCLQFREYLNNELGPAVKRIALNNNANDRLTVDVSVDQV

[2] = biological target: T1, Bee Hyaluronidase; test: SPR; XPR repeat 2
[3] = biological target: T1, Bee Hyaluronidase; test: SPR; XPR repeat 2
[4] = biological target: T1, Bee Hyaluronidase; test: SPR
[5] = biological target: T1, Bee Hyaluronidase; test: SPR

| Binder | koff [1] | koff [2] | Kd [3] | Kd [4] | koff [5] |
| --- | --- | --- | --- | --- | --- |
| B1 | 0.000115 s⁻¹ | 0.000133 s⁻¹ | 0.962 nM | – | – |
| B2 | – | – | – | 10.4 nM and 15.6 nM | 0.00111 s⁻¹ and 0.0013 s⁻¹ and 0.00116 s⁻¹ |
